From PMC5980108, “ARE-mediated decay controls gene expression and cellular metabolism upon oxygen variations”

T1: dTIS11-6His (UniProt P47980 1-436)
T1 sequence: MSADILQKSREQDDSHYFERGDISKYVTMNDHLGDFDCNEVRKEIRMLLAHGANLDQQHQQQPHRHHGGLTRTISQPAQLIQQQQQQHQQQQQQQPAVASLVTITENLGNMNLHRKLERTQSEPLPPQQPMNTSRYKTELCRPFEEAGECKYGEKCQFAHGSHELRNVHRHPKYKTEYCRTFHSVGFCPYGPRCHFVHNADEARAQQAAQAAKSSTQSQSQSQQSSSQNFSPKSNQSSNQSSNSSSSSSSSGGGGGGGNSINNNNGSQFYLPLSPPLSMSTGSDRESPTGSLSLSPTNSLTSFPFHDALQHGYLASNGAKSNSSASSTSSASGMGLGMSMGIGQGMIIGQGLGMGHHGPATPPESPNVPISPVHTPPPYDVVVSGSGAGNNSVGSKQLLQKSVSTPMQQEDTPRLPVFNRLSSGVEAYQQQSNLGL


Target: T1, dTIS11-6His
Test: ITC; 5 uM ZnCl2; ITC: 20 mM MES pH 6.5, 300 mM NaCl, 5 uM ZnCl2, 0.5 mM DTT, 10 C; EMSA: 20 mM Tris pH 7.8, 3 mM MgCl2, 40 mM KCl, 2 mM DTT, 5% glycerol, gel at 4 C
Details: protein: recombinant; tags: C-terminal 6His

Row | Binder | Kd [nM] | binding result
1 | UGUUUAUUUUUAGUCCACCUCUCAAUUUAUUUAUUAUUUUUAUGA (ssRNA) [ImpL3 ARE (ITC)] | 2400 | –
2 | GAUUAUUUAUAAUUAUUUAUUUAAAGAUCUAUUUAUUC (ssRNA) [CecA1 ARE] | 580 | –
3 | AUUCUAUUGUUUCUUCUUAUAUAUUGUUAUUCUUCACAUAAUGUU (ssRNA) [Scrambled ImpL3 ARE (ITC)] | – | no binding
4 | CGAUUUAUUUAUUUAGA (ssRNA) [TNF ARE] | 895 | –
